The target in the assay is PD1 (programmed cell death protein 1) (human, UniProt Q15116 25-288). In words: cell-based or functional assay.
PD1 (programmed cell death protein 1), sequence (Q15116 25-288): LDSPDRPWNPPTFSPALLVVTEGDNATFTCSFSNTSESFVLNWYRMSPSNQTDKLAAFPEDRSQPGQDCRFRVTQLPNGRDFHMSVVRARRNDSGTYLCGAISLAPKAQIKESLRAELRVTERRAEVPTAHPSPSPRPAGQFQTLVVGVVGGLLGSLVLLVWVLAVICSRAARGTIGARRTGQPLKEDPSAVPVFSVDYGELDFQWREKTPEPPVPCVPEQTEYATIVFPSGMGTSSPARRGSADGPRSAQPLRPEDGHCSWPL

B1: XmAb®20717 (bispecific antibody, human IgG1, kappa)
heavy: not shown
scFv: EIVLTQSPATLSASPGERVTLTCRASQSVGNDVAWYQQKPGQAPRLLINYASHRYTGVPDRFTGSGYGTEFTLTISSVQSEDFGVYYCQQDFSSPRTFGGGTKVEIKGKPGSGKPGSGKPGSGKPGSEVQLVESGGGLVKPGGSLRLSCVASGFTFSNYWMNWVRQAPGKGLEWVAEIRLYSNNYATHYAESVKGRFTISRDDSKSTLYLQMNNLKTEDTGVYYCTRYYGNYGGYFDVWGRGTLVTVSSEPKSSDKTHTCPPCPAPPVAGPSVFLFPPKPKDTLMISRTPEVTCVVVDVKHEDPEVKFNWYVDGVEVHNAKTKPREEQYNSTYRVVSVLTVLHQDWLNGKEYKCKVSNKALPAPIEKTISKAKGQPREPQVYTLPPSREQMTKNQVKLTCLVKGFYPSDIAVEWESNGQPENNYKTTPPVLDSDGSFFLYSKLTVDKSRWQQGNVFSCSVLHEALHSHYTQKSLSLSPGK
light: not shown
Consider B1, for which the “IL-2 secretion (ELISA of culture supernatants) from SEB-stimulated human PBMC treated 24 hours, versus anti-RSV isotype-control bivalent antibody XENP15074” value was determined as 4.1 fold; the “IL-2 secretion (ELISA) from SEB-stimulated human PBMC, versus a mixture of the monovalent component antibodies XENP20111 (anti-PD1 scFv-Fc) and XENP20059 (anti-CTLA4 Fab-Fc)” value worked out at 1.6 fold; the “IL-2 secretion (ELISA) from SEB-stimulated human PBMC, versus the bivalent anti-PD1 antibody XENP16432” value was 1.5 fold.

The values are drawn from US20230074793A1 (Xencor, published 2023).
